T1: human OX40-FC-biotin (human OX40 recombinant protein with Fc tag, Acro Biosystems OX40-H5255, labeled with … (human, UniProt P43489 29-216, labeled with biotin (site not stated)))
T1 construct: range 29-216; Bought (Acro Biosystems OX40-H5255; printed once as OXO-H5255), expressed in HEK293; also called human Bio-OX40-FC; not shown: Fc tag of the bought protein
T1 sequence (looked up): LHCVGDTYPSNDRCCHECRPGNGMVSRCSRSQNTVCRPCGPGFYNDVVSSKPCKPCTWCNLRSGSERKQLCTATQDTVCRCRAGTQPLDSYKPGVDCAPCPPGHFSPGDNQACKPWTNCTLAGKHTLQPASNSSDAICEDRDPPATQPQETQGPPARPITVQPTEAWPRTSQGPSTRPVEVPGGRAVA

T2: human OX40 (antigen of the ELISA of Example 4) (human, UniProt P43489 29-216, limits assumed)
T2 construct: either human OX40-His or human OX40-Fc-biotin
T2 sequence (looked up): T1 sequence (looked up)

T3: human OX40 on Jurkat-NF-Kb luc-hOX40 cells (human, UniProt P43489 29-277)
T3 sequence (looked up): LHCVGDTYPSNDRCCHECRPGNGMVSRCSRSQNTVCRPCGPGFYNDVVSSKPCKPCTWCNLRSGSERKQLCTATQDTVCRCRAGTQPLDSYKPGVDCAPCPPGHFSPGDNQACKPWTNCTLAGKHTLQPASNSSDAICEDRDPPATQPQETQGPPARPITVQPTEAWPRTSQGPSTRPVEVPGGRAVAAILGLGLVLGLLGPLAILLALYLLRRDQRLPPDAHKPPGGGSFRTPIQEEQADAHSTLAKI

B1: chimeric antibody Ch4B5 (antibody, V domains shown)
VH: QVQLKQSGPGLVQPSQSLSITCTVSGFSLTSYGLHWFRQSPGKGLEWLGVIWSGGSTDYNAAFISRLSISKDDSKSQVFFKMNSLQADDTAIYYCAREEYDVWGTGTTVTVSS
VL: DIQMTQTASSLSASLGDRVTISCRASQDISNYLNWYQQKPDGTVKLLIYYTSRLHSGVPSRFSGSGSGTDYSLTISNLEQEDVATYFCQQGNTLPWTFGGGTKLEIK
B2: murine monoclonal antibody m2G3 (antibody, V domains shown)
VH: QVQLKESGPGLVASSQSLSITCTVSGFSLSRYSVHWVRQPPGKGLEWLGMIWDGGNTDYNSALKSRLSISKDNSKSQVFLKMNSLQTDDTAMYYCARNPLYFSYAMDYWGQGTSVTVSS
VL: B1 VL with T7S, A8T, Y49I, H55Q, V83I, G91V, L94F, W96F, G100S
notes: Murine hybridoma monoclonal
B3: murine monoclonal antibody m4B5 (antibody, V domains shown)
VH: B1 VH
VL: B1 VL
notes: Murine hybridoma monoclonal
B4: humanized antibody 2G3-hu6 (antibody, human IgG1, V domains shown)
VH: QVQLQESGPGLVKPSQTLSLTCTVSGFSLSRYSVHWVRQPPGKGLEWIGMIWDGGNTDYAAPVKGRFTISRDDSKNTLYLQMNSLKTEDTAVYYCARNPLYFSYAMDYWGQGTLVTVSS
VL: DIQMTQSPSSLSASVGDRVTITCRASQDISNYLNWYQQKPDQSPKLLIIYTSRLQSGVPSRFSGSGSGTDYTLTISSLQPEDFATYYCQQVNTFPFTFGQGTKLEIK
notes: hu2G3 VH1.2 + hu2G3 VL1
B5: humanized antibody 2G3-hu2 (antibody, human IgG1, V domains shown)
VH: QVQLQESGPGLVKPSETLSLTCTVSGGSISRYSVHWIRQPPGKGLEWIGMIWDGGNTDYNSALKSRVTISVDTSKNQFSLKLSSVTAADTAVYYCARNPLYFSYAMDYWGQGTLVTVSS
VL: B4 VL
notes: hu2G3 VH2 + hu2G3 VL1
B6: humanized antibody 2G3-hu4 (antibody, human IgG1, V domains shown)
VH: B5 VH
VL: B4 VL with D41G, Q42K, S43A, I49Y
notes: hu2G3 VH2 + hu2G3 VL2
B7: humanized antibody hu4B5-V1 (antibody, human IgG1, V domains shown)
VH: QVQLQESGPGLVKPSETLSLTCTVSGFSLTSYGLHWIRQPPGKGLEWIGVIWSGGSTDYNAAFISRVTISVDTSKNQFSLKLSSVTAADTAVYYCAREEYDVWGQGTTVTVSS
VL: DIQMTQSPSSLSASVGDRVTITCRASQDISNYLNWYQQKPGKVPKLLIYYTSRLHSGVPSRFSGSGSGTDFTLTISSLQPEDVATYYCQQGNTLPWTFGGGTKVEIK
notes: hu4B5 VH0 + hu4B5 VL0
B8: humanized antibody 2G3-hu3 (antibody, human IgG1, V domains shown)
VH: QVQLQESGPGLVKPSETLSLTCTVSGYSISRYSVHWVRQPPGKGLEWIGMIWDGGNTDYNSALKSRFTISRDNSKNTLYLQMNSLRAEDTAVYYCARNPLYFSYAMDYWGQGTLVTVSS
VL: B4 VL with D41G, Q42K, S43A, I49Y
notes: hu2G3 VH1 + hu2G3 VL2
B9: humanized antibody hu4B5-V21 (antibody, human IgG1, V domains shown)
VH: B7 VH with Q5K, I37F, V71K, D72E, T73D, N76S, F78V
VL: B7 VL with K42G, F71Y, P80Q
notes: hu4B5 VH3 + hu4B5 VL3; human IgG1 / human Kappa constant regions
B10: humanized antibody hu4B5-V16 (antibody, human IgG1, V domains shown)
VH: B7 VH with V71K, D72E, T73D
VL: B7 VL with K42G, F71Y
notes: hu4B5 VH1 + hu4B5 VL2; human IgG1 / human Kappa constant regions
B11: humanized antibody hu4B5-V15 (antibody, human IgG1, V domains shown)
VH: B7 VH
VL: B7 VL with K42G, F71Y
notes: hu4B5 VH0 + hu4B5 VL2; human IgG1 / human Kappa constant regions
B12: humanized antibody hu4B5-V8 (antibody, human IgG1, V domains shown)
VH: B7 VH with V71K, D72E, T73D
VL: B7 VL with F71Y
notes: hu4B5 VH1 + hu4B5 VL1; human IgG1 / human Kappa constant regions
B13: humanized antibody hu4B5-V23 (antibody, human IgG1, V domains shown)
VH: B7 VH with V71K, D72E, T73D
VL: B7 VL with K42G, V43T, P44V, F71Y, Y87F
notes: hu4B5 VH1 + hu4B5 VL4; human IgG1 / human Kappa constant regions
B14: humanized antibody hu4B5-V6 (antibody, human IgG1, V domains shown)
VH: B7 VH
VL: B7 VL with F71Y
notes: hu4B5 VH0 + hu4B5 VL1; human IgG1 / human Kappa constant regions
B15: humanized antibody hu4B5-V14 (antibody, human IgG1, V domains shown)
VH: B7 VH with Q5K, I37F, I48L, V67L, V71K, D72E, T73D, N76S, F78V
VL: B7 VL with K42G, V43T, P44V, F71Y, Y87F
notes: hu4B5 VH4 + hu4B5 VL4; human IgG1 / human Kappa constant regions
B16: humanized antibody hu4B5-V25 (antibody, human IgG1, V domains shown)
VH: B7 VH with Q5K, I37F, V71K, D72E, T73D, N76S, F78V
VL: B7 VL with K42G, V43T, P44V, F71Y, Y87F
notes: hu4B5 VH3 + hu4B5 VL4; human IgG1 / human Kappa constant regions
B17: humanized antibody hu4B5-V22 (antibody, human IgG1, V domains shown)
VH: B7 VH
VL: B7 VL with K42G, V43T, P44V, F71Y, Y87F
notes: hu4B5 VH0 + hu4B5 VL4; human IgG1 / human Kappa constant regions
B18: humanized antibody 2G3-hu5 (antibody, human IgG1, V domains shown)
VH: B8 VH with S61A, S74A
VL: B4 VL with D41G, Q42K, S43A, I49Y
notes: hu2G3 VH1.1 + hu2G3 VL2
B19: humanized antibody hu4B5-V19 (antibody, human IgG1, V domains shown)
VH: B7 VH with V71K, D72E, T73D
VL: B7 VL with K42G, F71Y, P80Q
notes: hu4B5 VH1 + hu4B5 VL3; human IgG1 / human Kappa constant regions
B20: humanized antibody hu4B5-V2 (antibody, human IgG1, V domains shown)
VH: B7 VH with V71K, D72E, T73D
VL: B7 VL
notes: hu4B5 VH1 + hu4B5 VL0; human IgG1 / human Kappa constant regions
B21: humanized antibody 2G3-hu7 (antibody, human IgG1, V domains shown)
VH: B4 VH
VL: B4 VL with D41G, Q42K, S43A, I49Y
notes: hu2G3 VH1.2 + hu2G3 VL2
B22: humanized antibody hu4B5-V4 (antibody, human IgG1, V domains shown)
VH: B7 VH with Q5K, I37F, V71K, D72E, T73D, N76S, F78V
VL: B7 VL
notes: hu4B5 VH3 + hu4B5 VL0; human IgG1 / human Kappa constant regions
B23: humanized antibody 2G3-hu1 (antibody, human IgG1, V domains shown)
VH: B8 VH
VL: B4 VL
notes: hu2G3 VH1 + hu2G3 VL1
B24: humanized antibody hu4B5-V18 (antibody, human IgG1, V domains shown)
VH: B7 VH
VL: B7 VL with K42G, F71Y, P80Q
notes: hu4B5 VH0 + hu4B5 VL3; human IgG1 / human Kappa constant regions
B25: humanized antibody hu4B5-V10 (antibody, human IgG1, V domains shown)
VH: B7 VH with Q5K, I37F, V71K, D72E, T73D, N76S, F78V
VL: B7 VL with F71Y
notes: hu4B5 VH3 + hu4B5 VL1; human IgG1 / human Kappa constant regions
B26: chimeric antibody Ch2G3 (antibody, V domains shown)
VH: B2 VH
VL: B1 VL with T7S, A8T, Y49I, H55Q, V83I, G91V, L94F, W96F, G100S

Numbering of substitutions follows the chain as printed.

From patent US20210355229A1 (JIANGSU HENGRUI MEDICINE, published 2021) come the findings set out here.

The target of one assay is T1, human OX40-FC-biotin (human OX40 …). Nature of the assay: capture ELISA, biotin-OX40-Fc. The method, then: 20xPBS buffer was diluted to 1 xwith deionized water. […] 100 μL of the diluted primary antibody was added to each well (the antibody to be tested was 5-fold diluted from the concentration of 10000 ng/ml, resulting in seven gradients, namely 10000 ng/ml, 2000 ng/ml, 400 ng/ml, 80 ng/ml, 16 ng/ml, 3.2 ng/ml, and 0.64 ng/ml, blank wells merely contained dilution solution, i.e., 2.5% skimmed milk in PBST), and incubated at 37° C. for 40 minutes. The plate was washed for 4 times with PBST, human OX40-FC-biotin (Acro biosystem, OXO-H5255, labeled biotin) was diluted with 2.5% skimmed milk in PBST, 100 μl was added to each well, incubated at 37° C. for 40 min, and the plate was washed for 4 times with PB ST. 100 μL TMB developing solution was added to each well, incubated for 3-15 minutes in dark at room temperature, 50 μl stop solution (1M sulfuric acid) was added to each well. The parameters were set for the microplate reader, the OD value was read at 450-630nm, and the test data were saved.
A general note: ELISA stands for enzyme-linked immunosorbent assay.
With B1, the EC50 – broadly, the concentration at which the effect is half-maximal – was found to be 0.208 µg/mL. Same read-out and setting: for B2 the value was 0.867 µg/mL; for B3, 0.58 µg/mL. B4: the EC50 was 0.82 µg/mL.

Regarding B5, the concentration for a half-maximal effect (EC50) turned out to be 1.6 µg/mL. Still for that read-out and setting: then B6, with 2.27 µg/mL. Still for that read-out and setting: for B7 the value was 0.59 µg/mL.

For B8, the binding result is given as “binds”.

Regarding B9, the binding result is given as “binds”. For the molecule B10, the binding result is “binds”. As to B11, the binding result is recorded as “binds”. Same read-out and setting: then B12, with “binds”. Regarding B13, the binding result is on record as “binds”. On the same count and under the same terms, for B14 the value was “binds”. Regarding B15, the EC50 came to 0.536 µg/mL. Regarding B16, the binding result is “binds”. Still for that read-out and setting: for B17 the value was “binds”.

On to B18, for which the binding result is “binds”. For B19, the binding result is “binds”. As to B20, the binding result is listed as “binds”.

For the molecule B21, the EC50 was found to be 0.743 µg/mL.

As for B22, the binding result is recorded as “binds”. As for B23, the EC50 stood at 0.886 µg/mL.

As to B24, the binding result is recorded as “binds”.

Regarding B25, the EC50 was 0.76 µg/mL.

The target in another assay is T2, human OX40 (antigen of the ELISA of …). Nature of the assay: ELISA on human OX40 (Example 4, steps as in Example 2), OD450 against log concentration of antibody.
Take B26: the EC50 (read off the curve) (usually the concentration needed to bring the measured effect to its halfway point) is roughly 0.01 µg/mL. On to B2, for which the 50% effective concentration (EC50 (read off the curve)) is roughly 0.03 µg/mL.

Another assay concerns the target T3, human OX40 on Jurkat-NF-Kb luc-hOX40 …. The experiment in a line: cell-based or functional assay.
As to B26, the “EC50 (nM), in vitro activation of reporter gene (luciferase, Jurkat-NF-Kb luc-hOX40 cells with Raji cells, anti-CD3 coated)” value was found to be 0.637 nM. On the same count and under the same terms, for B1 the value was 0.559 nM.

The target of the next assay is T2, human OX40 (antigen of the ELISA of …). The experiment in a line: ELISA on human OX40 (Example 4, steps as in Example 2), OD450 against log concentration of antibody. The source holds these as a separate data set.
As for B1, the “EC50 (read off the curve)” value was roughly 0.02 µg/mL. Take B3: the 50% effective concentration (EC50 (read off the curve)) is roughly 0.04 µg/mL.
